# From patent US20240158494A1 (Biogen, published 2024)
# Substitutions are numbered along the chain they refer to. Names and notes keep the numbering of the source.
# B1: TfR1 ANTIBODY-B HC-H4C hIgG1 Fab′(1C)/LC-L2 hKappa (Fab, V domains shown)
# VH: QSLVESGGGVVQPGRSLRLSCKASGFSFSNSYWICWVRQAPGKGLEWVGCINTDADSTNYASWARGRFTISKTSSTTVYLQMNSLRAEDTAVYYCARQNNVFDPGYNLWGPGTLVTVSS
# VL: ELVLTQSPSTLSASVGDRVTITCRASQNIGSNLAWYQQKPGKAPKLLIYDASKLESGVPSRFSGSGSGTEFTLTISSLQPDDFATYYCQCTVRGGAYGNAFGGGTKVEIKR
# notes: also called ANTIBODY-B H4C/L2; exemplary construct (v)
# B2: TfR1 ANTIBODY-B HC-H1C hIgG1 Fab′(1C)/LC-L2 hKappa (Fab, V domains shown)
# VH: QSLVESGGGVVQPGRSLRLSCAASGFSFSNSYWICWVRQAPGKGLEWVGCINTDADSTNYADSVKGRFTISKDNSKNTVYLQMNSLRAEDTAVYYCARQNNVFDPGYNLWGQGTLVTVSS
# VL: B1 VL
# notes: also called ANTIBODY-B H1C/L2; TfRANTIBODY-B HC-H1C/LC-L2 hIgG1Fab′(1C)
# B3: TfR1 ANTIBODY-B HC-H3C hIgG1 Fab′(1C)/LC-L2 hKappa (Fab, V domains shown)
# VH: B2 VH with D62S, S63W, V64A, K65R, V79L
# VL: B1 VL
# notes: also called ANTIBODY-B H3C/L2; TfRANTIBODY-B HC-H3C/LC-L2 hIgG1Fab′(1C)
# B4: TfR1 ANTIBODY-A HC-H4C hIgG1 Fab′(1C)/LC-L1 hKappa (Fab, V domains shown)
# VH: QSLVESGGGLVQPGGSLRLSCKASGIDFSSSGYMCWVRQAPGKGLEWVGCIYTYSSNTYYASWAKGRFTISKTSSTTVYLQMNSLKTEDTAVYYCARGTYGYTGYTYTMGYFSLWGPGTLVTVSS
# VL: DIQMTQSPSTLSASVGDRVTITCQASQNINSYLAWYQQKPGKAPKLLIYRASTLASGVPSRFSGSGSGTEFTLTISSLQPDDFATYYCQSYYYSGSSNYNAFGGGTKVEIKR
# notes: also called ANTIBODY-A H4C/L1
# B5: TfR1 ANTIBODY-A HC-H4C hIgG1 Fab′(1C)/LC-L0 hKappa (Fab, V domains shown)
# VH: B4 VH
# VL: B4 VL with T53S, A55E
# notes: also called ANTIBODY-A H4C/L0
# B6: TfR1 ANTIBODY-A HC-H2C hIgG1 Fab′(1C)/LC-L1 hKappa (Fab, V domains shown)
# VH: B4 VH with K22A, S62A, W63S, A64V, P117Q
# VL: B4 VL
# notes: also called ANTIBODY-A H2C/L1
# B7: TfR1 ANTIBODY-A HC-H3C hIgG1 Fab′(1C)/LC-L1 hKappa (Fab, V domains shown)
# VH: B4 VH with T73D, S75K, T76N, T77S
# VL: B4 VL
# notes: also called ANTIBODY-A H3C/L1
# B8: TfR1 ANTIBODY-A HC-H3C hIgG1 Fab′(1C)/LC-L0 hKappa (Fab, V domains shown)
# VH: B4 VH with T73D, S75K, T76N, T77S
# VL: B4 VL with T53S, A55E
# notes: also called ANTIBODY-A H3C/L0; TfRANTIBODY-A HC-H3C hIgG1Fab′(1C)/LC-L0 hKappa
# B9: Rabbit ANTIBODY-B chi Fab (Fab, V domains shown)
# VH: QSLEESGGGLVQPEGSLTLTCKASGFSFSNSYWICWVRQAPGKGLEWIGCINTDADSTNYASWARGRFTISKTSSTTVTLQMTSLTAADTASYFCARQNNVFDPGYNLWGPGTLVTVSS
# VL: ELVLTQTPASVSEAVGGTVTIKCQASQNIGSNLAWYQQKPGQPPKLLIYDASKLASGVPSRFSGSGSGTEFTLTISDLECADAATYYCQCTVRGGAYGNAFGGGTEVVVK
# notes: chimeric Fab, rabbit variable regions; constant regions of the Fab not specified (chimeric antibodies were made with a human IgG1 framework); also called chimeric rabbit Fab fragment of RabANTIBODY-B
# B10: Rabbit ANTIBODY-A chi Fab (Fab, V domains shown)
# VH: QSLEESGGGLVQPGASLTLTCKASGIDFSSSGYMCWVRQAPGKGLEWIGCIYTYSSNTYYASWAKGRFTISKTSSTTVTLQMTSLTAADTATYFCARGTYGYTGYTYTMGYFSLWGPGTLVTVSS
# VL: ELDMTQTPASVEAAVGGTVTIKCQASQNINSYLAWYQQKPGQPPKLLIYRASTLASGVPSRFKGSGSGTEFTLTISDLECADAATYYCQSYYYSGSSNYNAFGGGTELEIL
# notes: chimeric Fab, rabbit variable regions; constant regions of the Fab not specified (chimeric antibodies were made with a human IgG1 framework); also called chimeric rabbit Fab fragment of RabANTIBODY-A
# B11: TfR1 ANTIBODY-B HC-H2C hIgG1 Fab′(1C)/LC-L2 hKappa (Fab, V domains shown)
# VH: B1 VH with S62D, W63S, A64V, R65K, T73D, P111Q
# VL: B1 VL
# notes: also called ANTIBODY-B H2C/L2
# B12: TfR1 ANTIBODY-B HC-H4 hIgG1 Fab′(1C)/LC-L2 hKappa (Fab, V domains shown)
# VH: B1 VH with C35A, G49A, C50A
# VL: B1 VL
# notes: also called ANTIBODY-B H4/L2
# Molecular target: T1, human transferrin receptor 1 (TfR1), full length, expressed on cells (human, UniProt P02786 1-760)
# T1 construct: also called human TfR1; huTfR
# Assay: FACS on Ba/F3 cells, Fab supernatant
row,Binder,EC50 [nM]
1,B1,5.4
2,B2,5.9
3,B3,7

# Molecular target: T2, cynomolgus monkey transferrin receptor 1 (TfR1), full length, expressed on cells (cynomolgus monkey, UniProt Q5RDH6 1-760 (Pongo abelii entry))
# T2 construct: also called cyno TfR1; cyTfR
# Assay: FACS on Ba/F3 cells, Fab supernatant
row,Binder,EC50 [nM]
1,B1,1.9
2,B2,2.3
3,B3,4

# Molecular target: T1, human transferrin receptor 1 (TfR1), …
# Assay: FACS on Ba/F3 cells, purified Fab
row,Binder,EC50 [nM]
1,B4,1.8
2,B5,1.4
3,B6,1.3
4,B7,1.5
5,B8,1.6

# Molecular target: T2, cynomolgus monkey transferrin receptor …
# Assay: FACS on Ba/F3 cells, purified Fab
row,Binder,EC50 [nM]
1,B4,2.4
2,B5,2
3,B6,3.3
4,B7,5.5
5,B8,5

# Molecular target: T3, recombinant human TfR1 extracellular domain, His-tagged (human, UniProt P02786 89-760)
# T3 construct: also called Human TfR1 ECD; human TfR1 ECD-His
# Assay: SPR, TfR1 ECD-His captured, Fab 50 and 500 nM, no transferrin
Binder,Kd [nM],koff [s⁻¹],kon [M⁻¹ s⁻¹]
B9,12,0.0018,140000
B10,7,0.0012,170000

# Molecular target: T4, recombinant cynomolgus monkey TfR1 extracellular domain, His-tagged (cynomolgus monkey, UniProt Q5RDH6 87-760 (Pongo abelii entry))
# T4 construct: also called Cyno TfR1 ECD; cyno TfR1 ECD-His
# Assay: as above
Binder,Kd [nM],koff [s⁻¹],kon [M⁻¹ s⁻¹]
B9,3.8,0.00095,250000
B10,43,0.01,230000

# Molecular target: T3, recombinant human TfR1 extracellular …
# Assay: SPR, TfR1 ECD-His captured, in the presence of 1 mM holo human transferrin
Binder,Kd [nM],koff [s⁻¹],kon [M⁻¹ s⁻¹]
B9,8.2,0.0015,180000
B10,6.8,0.0012,170000

# Molecular target: T4, recombinant cynomolgus monkey TfR1 …
# Assay: as above
Binder,Kd [nM],koff [s⁻¹],kon [M⁻¹ s⁻¹]
B9,3.5,0.00094,270000
B10,43,0.01,230000

# Molecular target: T1, human transferrin receptor 1 (TfR1), …
# Assay: FACS on Ba/F3 cells, Fab supernatant
# Remark: another data set of the same source
row,Binder,EC50 [nM]
1,B8,1.1
2,B2,10.1

# Molecular target: T2, cynomolgus monkey transferrin receptor …
# Assay: FACS on Ba/F3 cells, Fab supernatant
# Remark: another data set of the same source
row,Binder,EC50 [nM]
1,B8,1.5
2,B2,2.8

# Molecular target: T1, human transferrin receptor 1 (TfR1), …
# Assay: FACS on Ba/F3 cells, purified Fab
# Remark: another data set of the same source
row,Binder,EC50 [nM]
1,B1,4.8
2,B2,8.2
3,B11,6.5
4,B12,9.8
5,B3,5.5

# Molecular target: T2, cynomolgus monkey transferrin receptor …
# Assay: FACS on Ba/F3 cells, purified Fab
# Remark: another data set of the same source
row,Binder,EC50 [nM]
1,B1,2
2,B2,2.3
3,B11,2.6
4,B12,3.4
5,B3,1.9

# Molecular target: T1, human transferrin receptor 1 (TfR1), …
# Assay: FACS on Ba/F3 cells, Fab supernatant
# Remark: another data set of the same source
row,Binder,EC50 [nM]
1,B1,4.7
2,B2,3.8
3,B11,3.3
4,B12,2.3
5,B3,6.8

# Molecular target: T2, cynomolgus monkey transferrin receptor …
# Assay: FACS on Ba/F3 cells, Fab supernatant
# Remark: another data set of the same source
row,Binder,EC50 [nM]
1,B1,2.9
2,B2,2.8
3,B11,2.2
4,B12,4.6
5,B3,2.6

# Molecular target: T3, recombinant human TfR1 extracellular …
# Assay: SPR, TfR1 ECD-His captured, Fab injected, 1:1 fit
Binder,Kd [nM],koff [s⁻¹],kon [M⁻¹ s⁻¹]
B9,5.8,0.000573,99200
B4,0.91,0.000894,983000
B5,0.99,0.000878,887000
B6,1.2,0.000947,773000
B7,1.2,0.00126,1.02e+06
B8,1.4,0.0012,835000
B10,5.2,0.00101,192000
B1,3.4,0.000767,223000
B2,6.7,0.00115,171000
B11,5.8,0.000999,170000
B12,11.6,0.00155,134000
B3,7.4,0.00147,200000

# Molecular target: T4, recombinant cynomolgus monkey TfR1 …
# Assay: SPR, TfR1 ECD-His captured, Fab injected, 1:1 fit
Binder,Kd [nM],koff [s⁻¹],kon [M⁻¹ s⁻¹]
B9,1.5,0.000436,283000
B4,2.6,0.0114,4.4e+06
B5,3.3,0.00583,1.75e+06
B6,3,0.0195,6.56e+06
B7,4.1,0.0106,2.58e+06
B8,2.5,0.0103,4.1e+06
B10,29,0.00925,317000
B1,0.7,0.000279,398000
B2,1.3,0.000425,315000
B11,1.1,0.000472,445000
B12,2.2,0.000508,228000
B3,1.7,0.000608,348000

# Molecular target: T1, human transferrin receptor 1 (TfR1), …
# Assay: FACS on Ba/F3 cells, Fab supernatant
# Remark: another data set of the same source
row,Binder,EC50 [nM]
1,B4,2.2
2,B5,1.4
3,B6,2.6
4,B7,2.1
5,B8,2.5

# Molecular target: T2, cynomolgus monkey transferrin receptor …
# Assay: FACS on Ba/F3 cells, Fab supernatant
# Remark: another data set of the same source
row,Binder,EC50 [nM]
1,B4,1.8
2,B5,1.8
3,B6,3.3
4,B7,4.5
5,B8,2.7
